Test results reported in article PMC9333989.

What was measured:
Test in all cases: co-IP; FFLISA as a1; total Lck signal of all sucrose gradient fractions normalised to CD4 signal, given relative to WT
[1] = biological target: mouse CD4 Clasp mutant (C444S, C446S) (mouse) (UniProt P06332)
[2] = biological target: mouse CD4 H mutant (total ICD helix mutation, aa430–442 to …) (mouse) (UniProt P06332)
[3] = biological target: mouse CD4 HC mutant (total helix + clasp: aa430–442 replaced, C444S, C446S) (mouse) (UniProt P06332)
[4] = biological target: mouse CD4 LL mutant (L437A + L438A) (mouse) (UniProt P06332)
[5] = biological target: mouse CD4 TP mutant (TMD + Palm: G403V, G406L, C418S, C421S) (mouse) (UniProt P06332)

total CD4–Lck abundance, percent of WT [1]: 31 % of WT
CD4−Lck association, percent of WT [2]: 25 % of WT
CD4−Lck association, percent of WT [3]: 14 % of WT
total CD4–Lck abundance, percent of WT [4]: 49 % of WT
total CD4–Lck abundance, percent of WT [5]: 123 % of WT
Substance: Lck (Src kinase) (from UniProt P06240 1-509) (enzyme)
